This passage reports Kd results from patent US20200308295A1 (published 2020).

For this assay, the target named is T1, recombinant human C3d (human, UniProt P01024 996-1303, limits assumed).
T1 construct: domain: C3d; Also used for statements that speak only of C3d or human C3d; also called wild-type C3d
Description: radiolabelled antibody; method and antigen not stated.

T1 sequence (P01024 996-1303 limits assumed): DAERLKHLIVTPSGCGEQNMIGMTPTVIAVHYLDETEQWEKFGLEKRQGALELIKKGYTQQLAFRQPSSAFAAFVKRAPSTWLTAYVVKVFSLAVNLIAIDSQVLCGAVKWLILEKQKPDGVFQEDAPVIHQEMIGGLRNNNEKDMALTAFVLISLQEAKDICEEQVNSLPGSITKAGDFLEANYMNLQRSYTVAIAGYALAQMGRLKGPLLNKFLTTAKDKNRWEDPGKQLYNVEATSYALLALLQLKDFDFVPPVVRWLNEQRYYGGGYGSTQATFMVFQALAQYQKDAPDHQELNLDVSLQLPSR

B1: mouse monoclonal antibody 3d29 (antibody, mouse IgG2a, V domains shown)
VH: EVQLQQSGPVLVKPGASVKMSCKASGYTFTDYYMNWVKQSHGKSLEWIGVINPYNGGTSYNQKFKGKATLTVDKSSRTAYMELNSLTSEDSAVYYCSRGGPYWGQGTTLTVSS
VL: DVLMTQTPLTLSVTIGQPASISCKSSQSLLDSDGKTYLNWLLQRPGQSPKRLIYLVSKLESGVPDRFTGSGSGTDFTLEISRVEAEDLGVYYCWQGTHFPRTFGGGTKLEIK
notes: Group I clone; Also used FITC-labelled, biotinylated, radiolabelled and conjugated to SPIO nanoparticles; told under assay; also called clone 29; C3d29
B1: the equilibrium dissociation constant (Kd) – broadly, the constant that tells how readily two partners part at equilibrium – came to 0.43 nM.
